Legend:
MSS31 cells = experiment: DNA synthesis (BrdU uptake ELISA) in retrovirally infected cells; format: cell-based, mouse; conditions: retroviral overexpression, 10% FBS and 10 μmol/l BrdU for 6 hours, OD450
Procedure: cDNA fragments encoding amino acids 1–169 [MetAP2(1–169)] or 1–229 [MetAP2(1–229)] of MetAP2 were PCR amplified and inserted into the multicloning site (SalI/NotI site) of the pRX-puro vector (Supplementary Figure S1).
DNA synthesis was quantified by measuring bromodeoxyuridine (BrdU) incorporation using the Cell Proliferation ELISA BrdU kit (Roche Applied Science, Penzberg, Upper Bavaria, Germany). MSS31 cells cultured for 24 hours in a medium containing 0.2% serum were stimulated with a medium containing 10% FBS and 10 μmol/l BrdU for 6 hours. The cells were harvested and BrdU uptake was measured according to the manufacturer’s protocol. Briefly, the cells were fixed, denatured, and incubated with the monoclonal anti-BrdU-peroxidase antibody. The immune complexes were then detected by the subsequent reaction with tetramethyl-benzidine. The reaction product was quantified by measuring the absorbance (OD450) using a scanning multiwell spectrophotometer.

S100A4 = experiment: FRET acceptor-photobleaching analysis in live HeLa cells; format: binding; conditions: ECFP fusion cotransfected with EYFP-S100A4, acceptor photobleaching, n = 8–11, **P < 0.01, ***P < 0.001

B1: MetAP2(1–229): truncated form of MetAP2, amino acids 1–229, expressed from retrovirus (protein, UniProt P50579 1-229, looked up, fragment)
chain: MAGVEEVAASGSHLNGDLDPDDREEGAASTAEEAAKKKRRKKKKSKGPSAAGEQEPDKESGASVDEVARQLERSALEDKERDEDDEDGDGDGDGATGKKKKKKKKKRGPKVQTDPPSVPICDLYPNGVFPKGQECEYPPTQDGRTAAWRTTSEEKKALDQASEEIWNDFREAAEAHRQVRKYVMSWIKPGMTMIEICEKLEDCSRKLIKENGLNAGLAFPTGCSLNNCA
B1 was tested, and the “serum-induced DNA synthesis” value (MSS31 cells) was “resulted in a marked suppression of serum-induced DNA synthesis”.

B2: ECFP-MetAP2: ECFP-tagged full-length MetAP2 expressed in HeLa cells (protein)
chain: AGVEQAASFGGHLNGDLDPDDREEGTSSTAEEAAKKKRRKKKKGKGAVSAVQQELDKESGALVDEVAKQLESQALEEKERDDDDEDGDGDADGATGKKKKKKKKKRGPKVQTDPPSVPICDLYPNGVFPKGQECEYPPTQDGRTAAWRTTSEEKKALDQASEEIWNDFREAAEAHRQVRKYVMSWIKPGMTMIEICEKLEDCSRKLIKENGLNAGLAFPTGCSLNNCAAHYTPNAGDTTVLQYDDICKIDFGTHISGRIIDCAFTVTFNPKYDILLTAVKDATNTGIKCAGIDVRLCDVGEAIQEVMESYEVEIDGKTYQVKPIRNLNGHSIGPYRIHAGKTVPIVKGGEATRMEEGEVYAIETFGSTGKGVVHDDMECSHYMKNFDVGHVPIRLPRTKHLLNVINENFGTLAFCRRWLDRLGESKYLMALKNLCDLGIVDPYPPLCDIKGSYTAQFEHTILLRPTCKEVVSRGDDY
modifications: left off: ECFP, end not stated, kept
notes: ECFP-tagged full-length MetAP2 expressed in HeLa cells
For B2, the “FRET efficiency with EYFP-S100A4 vs negative controls” value (S100A4) was “significantly higher than that of the negative controls”.

B3: MetAP2(1–169): truncated MetAP2, amino acids 1–169, control, expressed from retrovirus (protein, UniProt P50579 1-169, looked up, fragment)
chain: MAGVEEVAASGSHLNGDLDPDDREEGAASTAEEAAKKKRRKKKKSKGPSAAGEQEPDKESGASVDEVARQLERSALEDKERDEDDEDGDGDGDGATGKKKKKKKKKRGPKVQTDPPSVPICDLYPNGVFPKGQECEYPPTQDGRTAAWRTTSEEKKALDQASEEIWNDF
In the case of B3, the “serum-induced DNA synthesis” value (MSS31 cells) is reported as “but not MetAP2(1–169), resulted in a marked suppression of serum-induced DNA synthesis”.

From paper PMC4445002, “Efficient inhibition of tumor angiogenesis and growth by a synthetic peptide blocking S100A4-methionine aminopeptidase 2 interaction” (Molecular Therapy. Methods & Clinical Development, 2015)
